Measured values published in patent US20250228958A1, “TSP1 INHIBITOR” (Daiichi Sankyo Company, Limited, priority 2022, published 2025).
Positions of bridges follow the written chain, without caps; N, C: chain ends. Non-standard residues stand in square brackets, D forms with d. No end group written: not given here. 2Nal = N[C@@H](Cc1ccc2ccccc2c1)C(=O)O; Gly(cPent) = N[C@H](C(=O)O)C1CCCC1; 4Pal = N[C@@H](Cc1ccncc1)C(=O)O; Agb = N=C(N)NCC[C@H](N)C(=O)O; Pen = CC(C)(S)[C@H](N)C(=O)O; Phg = N[C@H](C(=O)O)c1ccccc1; Tle = CC(C)(C)[C@H](N)C(=O)O; hCys = N[C@@H](CCS)C(=O)O

B1: Peptide-125 (peptide)
peptide: [2Nal]R[hCys]GRDW[hCys]RW[Gly(cPent)]C-NH2
modifications: linker 3-8 via acetone bridge (-S-CH2-CO-CH2-S-); bridge N-12; not fully specified (N-terminus, bridges)
B2: Peptide-115 (peptide)
peptide: [2Nal]RSG[Agb]NWVRW[Gly(cPent)]C
modifications: bridge N-12; not fully specified (N-terminus, C-terminus, bridges); also: C-terminus amide-bonded to a linker (not defined)

Molecular target: Thrombospondin human platelet (Calbiochem, 605225) (human, UniProt P07996 19-1170)
Assay: cell-based or functional assay

Sequence of Thrombospondin human platelet (Calbiochem, 605225) (P07996 19-1170 limits assumed): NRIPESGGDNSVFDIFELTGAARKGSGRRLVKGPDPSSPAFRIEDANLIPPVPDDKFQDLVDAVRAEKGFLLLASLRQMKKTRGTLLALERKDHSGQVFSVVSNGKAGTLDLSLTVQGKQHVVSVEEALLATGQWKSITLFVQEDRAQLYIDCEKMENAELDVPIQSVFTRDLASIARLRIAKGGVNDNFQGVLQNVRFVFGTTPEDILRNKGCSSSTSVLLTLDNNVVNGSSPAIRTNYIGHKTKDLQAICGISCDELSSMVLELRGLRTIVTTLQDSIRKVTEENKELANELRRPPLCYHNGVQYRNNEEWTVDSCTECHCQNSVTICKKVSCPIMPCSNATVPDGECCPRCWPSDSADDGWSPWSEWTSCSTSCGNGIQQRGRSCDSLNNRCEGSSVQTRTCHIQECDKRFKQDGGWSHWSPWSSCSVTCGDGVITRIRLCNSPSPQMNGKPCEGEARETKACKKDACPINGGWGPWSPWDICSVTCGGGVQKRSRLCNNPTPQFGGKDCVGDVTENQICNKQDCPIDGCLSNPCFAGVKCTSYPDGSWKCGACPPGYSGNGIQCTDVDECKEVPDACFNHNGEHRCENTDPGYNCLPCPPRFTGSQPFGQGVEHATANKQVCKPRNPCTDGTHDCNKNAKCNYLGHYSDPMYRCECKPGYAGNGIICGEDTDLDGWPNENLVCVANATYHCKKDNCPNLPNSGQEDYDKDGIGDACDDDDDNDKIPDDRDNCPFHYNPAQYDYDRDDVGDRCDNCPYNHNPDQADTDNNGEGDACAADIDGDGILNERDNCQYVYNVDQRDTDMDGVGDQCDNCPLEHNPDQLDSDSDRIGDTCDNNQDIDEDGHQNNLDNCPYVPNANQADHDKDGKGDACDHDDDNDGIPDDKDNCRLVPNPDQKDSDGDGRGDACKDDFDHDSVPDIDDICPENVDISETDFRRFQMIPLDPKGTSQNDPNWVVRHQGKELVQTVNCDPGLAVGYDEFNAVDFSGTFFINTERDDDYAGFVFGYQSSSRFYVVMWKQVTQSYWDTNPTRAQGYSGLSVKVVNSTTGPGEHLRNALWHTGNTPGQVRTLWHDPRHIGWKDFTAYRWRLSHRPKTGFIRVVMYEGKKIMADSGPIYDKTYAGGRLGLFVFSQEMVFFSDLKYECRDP

Row | IC50 for inhibition of cell adhesion (HUVEC to coated human TSP1) [nM] | Binder
1 | 29.9 | [2Nal][Phg][hCys]G[Agb]NW[hCys]RW[Gly(cPent)]C-NH2 (disulfide 3-8; bridge N-12; not fully specified (N-terminus, bridges)) [Peptide-3]
2 | 11.6 | [2Nal]R[hCys]GRDW[hCys]RW[Gly(cPent)]C-NH2 (bridge 3-8, N-12; not fully specified (N-terminus, bridges)) [Peptide-127]
3 | 7.7 | [2Nal]RCGRDWCRW[Gly(cPent)]C-NH2 (bridge 3-8, N-12; not fully specified (N-terminus, bridges)) [Peptide-130]
4 | 208 | [2Nal]R[Pen]GRDW[hCys]RW[Gly(cPent)]C-NH2 (disulfide 3-8; bridge N-12; not fully specified (N-terminus, bridges)) [Peptide-135]
5 | 305 | B1
6 | 31.1 | [2Nal]R[hCys]GRNW[hCys]VW[Gly(cPent)]C-NH2 (disulfide 3-8; bridge N-12; not fully specified (N-terminus, bridges)) [Peptide-7]
7 | 92.5 | [2Nal]RCGRDW[Pen]RW[Gly(cPent)]C-NH2 (disulfide 3-8; bridge N-12; not fully specified (N-terminus, bridges)) [Peptide-138]
8 | 20 | [2Nal][Agb][hCys]G[Agb]NW[hCys]RW[Gly(cPent)]C-NH2 (disulfide 3-8; bridge N-12; not fully specified (N-terminus, bridges)) [Peptide-2]
9 | 162 | [2Nal]R[hCys]GRDW[Pen]RW[Gly(cPent)]C-NH2 (bridge 3-8, N-12; not fully specified (N-terminus, bridges)) [Peptide-136]
10 | 22.4 | [2Nal]R[hCys]G[Agb]DW[hCys]RW[Gly(cPent)]C-NH2 (disulfide 3-8; bridge N-12; not fully specified (N-terminus, bridges)) [Peptide-9]
11 | 8.4 | [2Nal]RCGRDWCRW[Gly(cPent)]C-NH2 (disulfide 3-8; bridge N-12; not fully specified (N-terminus, bridges)) [Peptide-128]
12 | 125 | [2Nal]R[Pen]GRDW[hCys]RW[Gly(cPent)]C-NH2 (bridge 3-8, N-12; not fully specified (N-terminus, bridges)) [Peptide-133]
13 | 102 | [2Nal]R[hCys]GRDW[Pen]RW[Gly(cPent)]C-NH2 (disulfide 3-8; bridge N-12; not fully specified (N-terminus, bridges)) [Peptide-134]
14 | 12.6 | [2Nal][Tle][hCys]GRNW[hCys]RW[Gly(cPent)]C-NH2 (disulfide 3-8; bridge N-12; not fully specified (N-terminus, bridges)) [Peptide-8]
15 | 14.2 | [2Nal]RCGRDW[hCys]RW[Gly(cPent)]C-NH2 (bridge 3-8, N-12; not fully specified (N-terminus, bridges)) [Peptide-131]
16 | 26 | [2Nal]R[hCys]GRDW[hCys]RW[Gly(cPent)]C-NH2 (disulfide 3-8; bridge N-12; not fully specified (N-terminus, bridges)) [Peptide-11]
17 | 10.8 | [2Nal]RCGRDW[hCys]RW[Gly(cPent)]C-NH2 (disulfide 3-8; bridge N-12; not fully specified (N-terminus, bridges)) [Peptide-126]
18 | 80.6 | [2Nal]R[Pen]GRDWCRW[Gly(cPent)]C-NH2 (bridge 3-8, N-12; not fully specified (N-terminus, bridges)) [Peptide-137]
19 | 12.6 | [2Nal]R[hCys]G[Agb]NW[hCys]RW[Gly(cPent)]C-NH2 (disulfide 3-8; bridge N-12; not fully specified (N-terminus, bridges)) [Peptide-1]
20 | 7 | [2Nal]R[hCys]GRDWCRW[Gly(cPent)]C-NH2 (bridge 3-8, N-12; not fully specified (N-terminus, bridges)) [Peptide-132]
21 | 23.6 | [2Nal]R[hCys]G[Agb]NW[hCys][4Pal]W[Gly(cPent)]C-NH2 (disulfide 3-8; bridge N-12; not fully specified (N-terminus, bridges)) [Peptide-5]
22 | 17.5 | B2
23 | 18.6 | [2Nal]R[hCys]GRNW[hCys]RWVC-NH2 (disulfide 3-8; bridge N-12; not fully specified (N-terminus, bridges)) [Peptide-12]
24 | 30.9 | [2Nal]RCGRDW[Pen]RW[Gly(cPent)]C-NH2 (bridge 3-8, N-12; not fully specified (N-terminus, bridges)) [Peptide-139]
25 | 33.8 | [2Nal]R[hCys]G[Agb]NW[hCys][Phg]W[Gly(cPent)]C-NH2 (disulfide 3-8; bridge N-12; not fully specified (N-terminus, bridges)) [Peptide-4]
26 | 43.7 | [2Nal]R[hCys]GRDWCRW[Gly(cPent)]C-NH2 (disulfide 3-8; bridge N-12; not fully specified (N-terminus, bridges)) [Peptide-129]
